Laboratory results from US20220331426A1, “METHODS OF TREATING CANCER USING TIGIT INHIBITORS AND ANTI-CANCER AGENTS” (Genentech, Inc., priority 2014, published 2022).

Target: T1, human TIGIT (Homo sapiens, UniProt Q495A1)
T1 sequence (Q495A1 22-244): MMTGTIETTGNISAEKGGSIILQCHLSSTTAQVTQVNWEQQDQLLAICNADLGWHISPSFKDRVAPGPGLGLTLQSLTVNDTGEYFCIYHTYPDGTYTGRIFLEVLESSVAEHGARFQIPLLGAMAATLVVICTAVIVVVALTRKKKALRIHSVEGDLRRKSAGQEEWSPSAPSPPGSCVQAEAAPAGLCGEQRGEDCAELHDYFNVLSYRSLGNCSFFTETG
Assay: binding of anti-TIGIT antibodies to human TIGIT
Details: hamster-anti-mouse anti-TIGIT antibodies; qualitative statement, no method given

| Molecule | specific binding to human TIGIT |
| --- | --- |
| 10A7: hamster-anti-mouse anti-TIGIT antibody; light chain SEQ ID NO:13, heavy chain SEQ ID NO:15 (antibody, V domains shown) VH: EVQLVESGGGLTQPGKSLKLSCEASGFTFSSFTMHWVRQSPGKGLEWVAFIRSGSGIVFYADAVRGRFTISRDNAKNLLFLQMNDLKSEDTAMYYCARRPLGHNTFDSWGQGTLVTVSS VL: DIVMTQSPSSLAVSPGEKVTMTCKSSQSLYYSGVKENLLAWYQQKPGQSPKLLIYYASIRFTGVPDRFTGSGSGTDYTLTITSVQAEDMGQYFCQQGINNPLTFGDGTKLEIKR | specifically bound |
| 1F4: hamster-anti-mouse anti-TIGIT antibody; light chain SEQ ID NO:14, heavy chain SEQ ID NO:16 (antibody, V domains shown) VH: EVQLQQSGPELVKPGTSMKISCKASGYSFTGHLMNWVKQSHGKNLEWIGLIIPYNGGTSYNQKFKGKATLTVDKSSSTAYMELLSLTSDDSAVYFCSRGLRGFYAMDYWGQGTSVTVSS VL: DVVLTQTPLSLSVSFGDQVSISCRSSQSLVNSYGNTFLSWYLHKPGQSPQLLIFGISNRFSGVPDRFSGSGSGTDFTLKISTIKPEDLGMYYCLQGTHQPPTFGPGTKLEVK | specifically bound |
